Earlier results on one substance are cited in US20200181212A1 (priority 2014, published 2020).

For orientation: residual activity means what remains of the control signal, in per cent.

For the data set, the system named is trypsin. Particulars: cited from earlier work.

Consider asparaginase [native asparaginase], for which the residual activity was 5%.
